Experimental data reported in article PMC10996437.
Where two headings read alike, the source gives them in different places.

Key:
[1] = biological target: Poly-His tagged murine FAM72A (mouse) (UniProt Q8BFZ8); test: BLI
[2] = biological target: Poly-His tagged murine FAM72A (mouse) (UniProt Q8BFZ8); test: BLI; remark: listed apart in the source

Sequence of UniProt Q8BFZ8 (Q8BFZ8 whole entry): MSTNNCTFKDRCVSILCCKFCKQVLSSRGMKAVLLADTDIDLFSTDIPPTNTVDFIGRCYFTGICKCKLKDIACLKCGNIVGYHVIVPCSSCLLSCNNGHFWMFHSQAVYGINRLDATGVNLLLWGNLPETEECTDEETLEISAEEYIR

Kd [1] [nM] | koff [1] [s⁻¹] | kon [1] [M⁻¹ s⁻¹] | Kd [2] [nM] | Substance
600 | 0.023 | 43000 |  | murine uracil-DNA glycosylase, nuclear form (mUNG2), untagged (enzyme)
1.9 | 0.037 |  | 188 | synthetic polypeptide containing the first 25 aa of mUNG2, C-terminal biotin
